Data taken from patent US20220340678A1 (MURAL ONCOLOGY, published 2022).
Each block holds one binder with its values, some of them ahead of it.

Tests used:
mouse uPAR on cells [1] = target: T1, mouse uPAR on cells (mouse, UniProt P35456 24-298); test: flow cytometry on MC38 cells (express mouse uPAR), anti-His detection
T1 construct: whole, on cells; also called Ms-uPAR; mouse uPAR (CD87)
T1 sequence (looked up): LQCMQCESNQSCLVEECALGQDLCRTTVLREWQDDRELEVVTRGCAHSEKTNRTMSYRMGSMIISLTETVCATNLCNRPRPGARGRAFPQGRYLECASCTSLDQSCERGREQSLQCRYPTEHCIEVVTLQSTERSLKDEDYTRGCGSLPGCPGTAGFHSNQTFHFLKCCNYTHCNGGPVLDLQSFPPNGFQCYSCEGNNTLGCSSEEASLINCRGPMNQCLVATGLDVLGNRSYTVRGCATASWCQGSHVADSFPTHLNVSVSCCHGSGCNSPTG

[2] = target: T2, Recombinant mouse uPAR-Fc (R&D Systems, Cat. No. 531-PA-100) (mouse, UniProt P35456 24-297, limits assumed); test: SPR (Biacore), mouse uPAR-Fc captured on anti-human antibody chip
T2 construct: not shown: Fc of the bought fusion (captured with the human antibody capture kit); not described
T2 sequence (looked up): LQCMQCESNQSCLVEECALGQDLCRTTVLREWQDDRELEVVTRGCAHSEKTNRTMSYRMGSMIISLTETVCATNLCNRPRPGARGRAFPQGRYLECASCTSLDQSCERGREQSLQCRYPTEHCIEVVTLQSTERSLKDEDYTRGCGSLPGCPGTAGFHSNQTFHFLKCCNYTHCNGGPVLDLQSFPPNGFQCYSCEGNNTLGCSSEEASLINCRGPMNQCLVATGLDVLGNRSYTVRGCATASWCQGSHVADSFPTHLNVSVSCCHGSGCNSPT

[3] = target: IL-2/IL-15 receptor on primary mouse splenocytes (mouse); test: cell-based or functional assay
[4] = target: T3, IL-2/IL-15 receptor on HH cells (human); test: cell-based or functional assay
T3 chain 1: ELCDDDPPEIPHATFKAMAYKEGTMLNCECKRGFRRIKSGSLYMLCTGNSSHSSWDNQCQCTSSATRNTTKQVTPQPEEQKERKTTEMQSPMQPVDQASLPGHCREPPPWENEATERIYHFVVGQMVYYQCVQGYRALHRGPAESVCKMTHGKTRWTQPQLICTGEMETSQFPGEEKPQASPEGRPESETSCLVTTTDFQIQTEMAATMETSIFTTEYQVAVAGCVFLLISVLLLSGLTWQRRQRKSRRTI
T3 chain 2: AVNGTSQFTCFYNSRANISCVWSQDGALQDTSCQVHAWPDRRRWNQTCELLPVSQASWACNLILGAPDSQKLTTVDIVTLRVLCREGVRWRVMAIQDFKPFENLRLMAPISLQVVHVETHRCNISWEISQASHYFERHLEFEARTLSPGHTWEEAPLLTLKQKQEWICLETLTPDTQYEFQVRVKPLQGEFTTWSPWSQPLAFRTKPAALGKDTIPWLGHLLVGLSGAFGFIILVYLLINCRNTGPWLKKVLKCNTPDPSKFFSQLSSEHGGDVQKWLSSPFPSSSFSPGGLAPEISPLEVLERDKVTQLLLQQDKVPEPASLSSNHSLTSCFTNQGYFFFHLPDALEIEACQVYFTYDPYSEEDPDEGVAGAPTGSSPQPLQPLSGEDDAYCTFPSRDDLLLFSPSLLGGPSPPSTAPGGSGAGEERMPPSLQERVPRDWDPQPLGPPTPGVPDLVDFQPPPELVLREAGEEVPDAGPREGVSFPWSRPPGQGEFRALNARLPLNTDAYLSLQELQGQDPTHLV
T3 chain 3: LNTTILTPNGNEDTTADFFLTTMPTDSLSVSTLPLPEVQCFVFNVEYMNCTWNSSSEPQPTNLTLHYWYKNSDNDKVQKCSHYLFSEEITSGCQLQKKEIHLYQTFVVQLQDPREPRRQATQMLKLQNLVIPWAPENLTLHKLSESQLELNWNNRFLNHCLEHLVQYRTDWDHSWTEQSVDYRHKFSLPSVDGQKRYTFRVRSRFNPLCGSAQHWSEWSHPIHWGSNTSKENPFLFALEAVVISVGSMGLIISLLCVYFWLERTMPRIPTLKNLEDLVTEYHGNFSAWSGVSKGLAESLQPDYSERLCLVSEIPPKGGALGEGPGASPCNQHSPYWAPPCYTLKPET

biotinylated human uPAR [5] = target: T4, biotinylated human uPAR (human, UniProt Q03405 23-303, limits assumed, biotinylated (site not stated)); test: BLI (Octet) competition on biotinylated human uPAR; competitor (first antibody): M1
[6] = target: T5, histidine-tagged human uPAR (Sino#10925-H08H) (human, UniProt Q03405 23-303); test: BLI (Octet), antibody on anti-mouse Fc sensor, uPAR in solution
T5 construct: also called uPAR-His

biotinylated human uPAR [7] = target: T4, biotinylated human uPAR; test: BLI (Octet) on biotinylated human uPAR; row 'None': no first antibody
biotinylated human uPAR [8] = target: T4, biotinylated human uPAR; test: BLI (Octet) competition on biotinylated human uPAR; competitor (first antibody): ATN-368 (ATN-658)
biotinylated human uPAR [9] = target: T4, biotinylated human uPAR; test: BLI (Octet) competition on biotinylated human uPAR; competitor (first antibody): M5
[10] = target: Human uPAR DII-DIII domain HisAvi Tag (human, biotinylated (site not stated)); test: BLI (Octet), biotinylated domain on SA sensor, antibody 200 nM
[11] = target: T6, human uPAR expressed on HEK293 cells (human, UniProt Q03405 23-305); test: flow cytometry, HEK293 cells expressing human uPAR, 100 nM uPA present
T6 construct: whole, on cells; also called Hu-uPAR

mouse uPAR on cells [12] = target: T1, mouse uPAR on cells; test: flow cytometry, HEK293 cells expressing mouse uPAR, 100 nM uPA present
[13] = target: T5, histidine-tagged human uPAR …; test: BLI (Octet), uPAR on sensor, antibody in solution (avidity)
[14] = target: Recombinant human uPAR his (R&D Systems, 807-UK-100/CF) (human, UniProt Q03405 23-303, biotinylated (sites not given)); test: SPR (Biacore), biotinylated human uPAR his on streptavidin chip

B4: M43 (antibody, V domains shown)
VH: QVQLQQSGAELARPGASVNLSCKASGYTFTSYGISWVKQRTGQGLEWIGEIYPRSGNTYYNEKFKGKATLTADKSSRTAYMELRSLTSEDSAVYFCAGKDYGSTYADYWGQGTTLTVSS
VL: QIVLTQSPAIMSASPGEKVTMTCSASSSVSSRYLHWYQQKSGASPKLWIYGTSNLASGVPARFSGSGSGTSYSLTINSVEAEDAATYYCQQYHSDPLTFGAGTKLELK
notes: Mouse hybridoma antibody; also called anti-uPAR antibody M43; parental M43
response in competition assay (biotinylated human uPAR [5]): 0.312
Kd [6]: 7.47 nM
koff [6]: 0.00883 s⁻¹
kon [6]: 1.18e+06 M⁻¹ s⁻¹
response in competition assay (biotinylated human uPAR [7]): 0.295
response in competition assay (biotinylated human uPAR [8]): 0.342
response in competition assay (biotinylated human uPAR [9]): 0.0175
binding result [10]: binds
EC50 [11]: 0.3 nM
EC50 (mouse uPAR on cells [12]): 2.83 nM
Kd [13]: < 0.001 nM
koff [13]: < 1e-07 s⁻¹
kon [13]: 554000 M⁻¹ s⁻¹

B5: His6:Human uPA-ATF:hIL-15Ra:cpIL-15 (other)
chain: HHHHHHSNELHQVPSNCDCLNGGTCVSNKYFSNIHWCNCPKKFGGQHCEIDKSKTCYEGNGHFYRGKASTDTMGRPCLPWNSATVLQQTYHAHRSDALQLGLGKHNYCRNPDNRRRPWCYVQVGLKPLVQECMVHDCAGGSGGITCPPPMSVEHADIWVKSYSLYSRERYICNSGFKRKAGTSSLTECVLNKATNVAHWTTPSLKCIRDGGSELEEKNIKEFLQSFVHIVQMFINGGGSNWVNVISDLKKIEDLIQSMHIDATLYTESDVHPSCKVTAMKCFLLELQVISLESGDASIHDTVENLIILANNSLSSNGNVTESGCKEC
notes: also called 100
Kd [14]: 1.1 nM
koff [14]: 0.00056 s⁻¹
kon [14]: 500000 M⁻¹ s⁻¹
pSTAT5 EC50, HH cells [4]: 0.18 nM

B7: M5 (antibody, V domains shown)
VH: QVQLKESGPGLVAPSQSLSITCTVSGFSLTNYGVHWVRQPPGKDLEWLVVIWSDGGTTYNSALKSRLSISKDNSKSQVFLKMNSLQTDDTAMYYCARGGRSDLFAYWGQGTLVTVSA
VL: DVLMTQTPLSLPVSLGDQASISCRSSQSIVHSNGNTYLEWYLQKPGQSPKLLIYKVSNRFSGVPDRFSGSGSGTDFTLKISRVEAEDLGVYYCFQGSHVPYTFGGGTKLEIK
notes: Mouse hybridoma antibody; also called anti-uPAR antibody M5; parental M5
response in competition assay (biotinylated human uPAR [5]): 0.161
Kd [6]: 33.1 nM
koff [6]: 0.000962 s⁻¹
kon [6]: 29100 M⁻¹ s⁻¹
response in competition assay (biotinylated human uPAR [7]): 0.181
response in competition assay (biotinylated human uPAR [8]): 0.179
response in competition assay (biotinylated human uPAR [9]): -0.0173
binding result [10]: binds
EC50 [11]: 2.53 nM
EC50 (mouse uPAR on cells [12]): 93.8 nM
Kd [13]: < 0.001 nM
koff [13]: < 1e-07 s⁻¹
kon [13]: 28300 M⁻¹ s⁻¹

Results, then the binder that gave them:

EC50 (mouse uPAR on cells [1]): 0.41 nM
Kd [2]: 0.14 nM
koff [2]: 0.0002 s⁻¹
kon [2]: 1.5e+06 M⁻¹ s⁻¹
pSTAT5 EC50, mouse NK cells [3]: 0.15 nM
pSTAT5 EC50, mouse Tregs [3]: 1.7 nM
pSTAT5 EC50, mouse memory CD8 T cells [3]: 0.5 nM
B1: His6:Mouse uPA-ATF:mouse IL-15Ra:cpIL-15 (other)
chain: HHHHHHGSVLGAPDESNCGCQNGGVCVSYKYFSRIRRCSCPRKFQGEHCEIDASKTCYHGNGDSYRGKANTDTKGRPCLAWNAPAVLQKPYNAHRPDAISLGLGKHNYCRNPDNQKRPWCYVQIGLRQFVQECMVHDCGGSGGTTCPPPVSIEHADIRVKNYSVNSRERYVCNSGFKRKAGTSTLIECVINKNTNVAHWTTPSLKCIRDGGSELEEKTFTEFLQSFIRIVQMFINGGGSNWIDVRYDLEKIESLIQSIHIDTTLYTDSDFHPSCKVTAMNCFLLELQVILHEYSNMTLNETVRNVLYLANSTLSSNKNVAESGCKEC
notes: also called 102

pSTAT5 EC50, HH cells [4]: 39 pM
B2: Human IL-15Ra:cpIL-15 (other)
chain: ITCPPPMSVEHADIWVKSYSLYSRERYICNSGFKRKAGTSSLTECVLNKATNVAHWTTPSLKCIRDGGSELEEKNIKEFLQSFVHIVQMFINGGGSNWVNVISDLKKIEDLIQSMHIDATLYTESDVHPSCKVTAMKCFLLELQVISLESGDASIHDTVENLIILANNSLSSNGNVTESGCKEC

pSTAT5 EC50, HH cells [4]: 1.1 nM
B3: Human cpIL-2:IL-2Ra (other)
chain: SKNFHLRPRDLISNINVIVLELKGSETTFMCEYADETATIVEFLNRWITFSQSIISTLTGGSSSTKKTQLQLEHLLLDLQMILNGINNYKNPKLTRMLTFKFYMPKKATELKHLQCLEEELKPLEEVLNLAQGSGGGSELCDDDPPEIPHATFKAMAYKEGTMLNCECKRGFRRIKSGSLYMLCTGNSSHSSWDNQCQCTSSATRNTTKQVTPQPEEQKERKTTEMQSPMQPVDQASLPGHCREPPPWENEATERIYHFVVGQMVYYQCVQGYRALHRGPAESVCKMTHGKTRWTQPQLICTG

Kd [14]: 0.59 nM
koff [14]: 0.00049 s⁻¹
kon [14]: 830000 M⁻¹ s⁻¹
pSTAT5 EC50, HH cells [4]: 1.5 nM
B6: Human cpIL-2:IL-2Ra:Human uPA-ATF-His6 (other)
chain: SKNFHLRPRDLISNINVIVLELKGSETTFMCEYADETATIVEFLNRWITFSQSIISTLTGGSSSTKKTQLQLEHLLLDLQMILNGINNYKNPKLTRMLTFKFYMPKKATELKHLQCLEEELKPLEEVLNLAQGSGGGSELCDDDPPEIPHATFKAMAYKEGTMLNCECKRGFRRIKSGSLYMLCTGNSSHSSWDNQCQCTSSATRNTTKQVTPQPEEQKERKTTEMQSPMQPVDQASLPGHCREPPPWENEATERIYHFVVGQMVYYQCVQGYRALHRGPAESVCKMTHGKTRWTQPQLICTGGGSGGSNELHQVPSNCDCLNGGTCVSNKYFSNIHWCNCPKKFGGQHCEIDKSKTCYEGNGHFYRGKASTDTMGRPCLPWNSATVLQQTYHAHRSDALQLGLGKHNYCRNPDNRRRPWCYVQVGLKPLVQECMVHDCAHHHHHH
notes: also called 99
